Reference: article PMC6531468, “Combinatorial recognition of clustered RNA elements by the multidomain RNA-binding protein IMP3”

Assays:
[1] = target: IMP3 KH1-d2 (Homo sapiens, UniProt O00425 192-355, K294D;E295D); assay: ITC; EMSA: 10 mM Tris-HCl pH 7.5, 150 mM NaCl, 0.5 mM EDTA, 0.5 mM DTT, 0.1% NP-40, 5% glycerol, tRNA+BSA, 5 nM RNA, 30 min RT then ice; ITC/NMR: 20 mM Bis-Tris, 150 mM NaCl, 2 mM TCEP (protein buffer pH 6.5), ITC RT, NMR 25 C; conditions: protein: recombinant; tags: Trx-His6 removed by TEV, leaves GAMA
Sequence of IMP3 KH1-d2 (O00425 192-355 K294D/E295D): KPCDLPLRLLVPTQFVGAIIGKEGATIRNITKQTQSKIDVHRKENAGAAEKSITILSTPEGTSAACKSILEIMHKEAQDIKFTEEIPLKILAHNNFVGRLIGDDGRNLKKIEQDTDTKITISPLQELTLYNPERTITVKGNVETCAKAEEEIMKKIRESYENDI

[2] = target: IMP3 RRM1-2 (Homo sapiens, UniProt O00425 2-156); assay: as above; conditions: protein: recombinant; tags: Trx-His6 removed by TEV; primer note: GA-MA-K3 N-terminus
Sequence of IMP3 RRM1-2 (O00425 2-156): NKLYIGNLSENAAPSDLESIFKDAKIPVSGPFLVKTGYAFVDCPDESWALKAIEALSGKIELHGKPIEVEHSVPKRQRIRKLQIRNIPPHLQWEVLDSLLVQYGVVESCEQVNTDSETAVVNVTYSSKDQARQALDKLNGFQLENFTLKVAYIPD

[3] = target: T1, IMP3 full-length (Homo sapiens, UniProt O00425 1-579); assay: EMSA; EMSA: 10 mM Tris-HCl pH 7.5, 150 mM NaCl, 0.5 mM EDTA, 0.5 mM DTT, 0.1% NP-40, 5% glycerol, tRNA+BSA, 5 nM RNA, 30 min RT then ice; ITC/NMR: 20 mM Bis-Tris, 150 mM NaCl, 2 mM TCEP (protein buffer pH 6.5), ITC RT, NMR 25 C; conditions: protein: recombinant; tags: N-terminal GST (pGEX-6P2); C-terminal His6 removed by TEV; label: 32P-UTP
T1 sequence (O00425 whole entry): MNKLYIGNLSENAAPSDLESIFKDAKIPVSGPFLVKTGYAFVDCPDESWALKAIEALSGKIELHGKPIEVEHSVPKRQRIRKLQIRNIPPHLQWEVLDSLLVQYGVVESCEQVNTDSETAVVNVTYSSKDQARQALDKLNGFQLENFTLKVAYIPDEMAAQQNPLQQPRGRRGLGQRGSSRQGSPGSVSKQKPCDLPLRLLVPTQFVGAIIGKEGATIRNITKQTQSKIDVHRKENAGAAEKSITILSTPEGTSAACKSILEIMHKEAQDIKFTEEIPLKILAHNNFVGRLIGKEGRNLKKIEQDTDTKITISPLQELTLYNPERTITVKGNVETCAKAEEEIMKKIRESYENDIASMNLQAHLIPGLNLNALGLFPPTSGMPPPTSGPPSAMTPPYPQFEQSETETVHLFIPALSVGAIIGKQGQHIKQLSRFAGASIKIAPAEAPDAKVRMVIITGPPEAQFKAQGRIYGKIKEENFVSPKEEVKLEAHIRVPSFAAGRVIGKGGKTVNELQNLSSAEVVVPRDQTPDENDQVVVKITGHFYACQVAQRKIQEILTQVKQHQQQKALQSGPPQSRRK

[4] = target: IMP3 dRRM1 (Homo sapiens, UniProt O00425 1-579, Y5A;Y39A;F41A); assay: EMSA; Hill n 2.8; EMSA: 10 mM Tris-HCl pH 7.5, 150 mM NaCl, 0.5 mM EDTA, 0.5 mM DTT, 0.1% NP-40, 5% glycerol, tRNA+BSA, 5 nM RNA, 30 min RT then ice; ITC/NMR: 20 mM Bis-Tris, 150 mM NaCl, 2 mM TCEP (protein buffer pH 6.5), ITC RT, NMR 25 C; conditions: protein: recombinant; tags: GST; label: 32P-UTP
Sequence of IMP3 dRRM1 (O00425 whole entry Y5A/Y39A/F41A): as the sequence (O00425 whole entry) above, with Y5A, Y39A, F41A counted along it

[5] = target: IMP3 dKH1-2 (Homo sapiens, UniProt O00425 1-579, K213D;E214D;K294D;E295D); assay: EMSA; Hill n 1.9; EMSA: 10 mM Tris-HCl pH 7.5, 150 mM NaCl, 0.5 mM EDTA, 0.5 mM DTT, 0.1% NP-40, 5% glycerol, tRNA+BSA, 5 nM RNA, 30 min RT then ice; ITC/NMR: 20 mM Bis-Tris, 150 mM NaCl, 2 mM TCEP (protein buffer pH 6.5), ITC RT, NMR 25 C; conditions: protein: recombinant; tags: GST; label: 32P-UTP
Sequence of IMP3 dKH1-2 (O00425 whole entry K213D/E214D/K294D/E295D): as the sequence (O00425 whole entry) above, with K213D, E214D, K294D, E295D counted along it

[6] = target: T1, IMP3 full-length; assay: EMSA; tRNA and BSA competitors; EMSA: 10 mM Tris-HCl pH 7.5, 150 mM NaCl, 0.5 mM EDTA, 0.5 mM DTT, 0.1% NP-40, 5% glycerol, tRNA+BSA, 5 nM RNA, 30 min RT then ice; ITC/NMR: 20 mM Bis-Tris, 150 mM NaCl, 2 mM TCEP (protein buffer pH 6.5), ITC RT, NMR 25 C; conditions: protein: recombinant; tags: N-terminal GST (pGEX-6P2); C-terminal His6 removed by TEV; label: 32P-UTP
[7] = target: IMP3 KH1-2 WT (Homo sapiens, UniProt O00425 192-355); assay: ITC; EMSA: 10 mM Tris-HCl pH 7.5, 150 mM NaCl, 0.5 mM EDTA, 0.5 mM DTT, 0.1% NP-40, 5% glycerol, tRNA+BSA, 5 nM RNA, 30 min RT then ice; ITC/NMR: 20 mM Bis-Tris, 150 mM NaCl, 2 mM TCEP (protein buffer pH 6.5), ITC RT, NMR 25 C; conditions: protein: recombinant; tags: Trx-His6 removed by TEV, leaves GAMA
Sequence of IMP3 KH1-2 WT (O00425 192-355): as the sequence (O00425 192-355 K294D/E295D) above, with D103K, D104E counted along it

[8] = target: IMP3 KHd1-2 (Homo sapiens, UniProt O00425 192-355, K213D;E214D); assay: as above; conditions: protein: recombinant; tags: Trx-His6 removed by TEV, leaves GAMA
Sequence of IMP3 KHd1-2 (O00425 192-355 K213D/E214D): as the sequence (O00425 192-355 K294D/E295D) above, with K22D, E23D, D103K, D104E counted along it

AACACAA (ssRNA) [CA 7-mer]: no binding [1].

CACACACACA (ssRNA) [(CA)5] gave a Kd [2] of 9000 ± 2000 nM.

CACACA (ssRNA) [(CA)3] showed a Kd [2] of 8000 ± 3000 nM.

With GUGUGUGUGU (ssRNA) [(GU)5] the Kd [2] was 49000 ± 3000 nM.

B1: ANKRD17 exon 29 (ssRNA)
RNA: GGGUCUGUCCGAAGGCAGCUUUUUGUCACAGUUGUGAAGACAUCCAAUCGCCACACAACAACAGUCACAACCACGGCAAGCAACAACAACACUGCACCCACAAAUGCCACAUAUCCUAUGC
In the case of B1, the Kd [3] is reported as 1.6 ± 0.4 nM.

B2: 101-mer (ssRNA)
RNA: GGGAGGGAGGAAGGCAAUUUUGGAGGAACUACAGAACACAUAUCGCAGCUAAAACACAAUUUUGGAGGAACUACAGAAUGCGGCUAUCCACACACAAAGGG
B2 gave a Kd [4] of 29.2 ± 1 nM, a Kd [5] of 50.7 ± 1.6 nM and a Kd [6] of 3.5 ± 0.7 nM.

B3: 101-mer GGC->UG (ssRNA)
RNA: GGGAGGGAGGAAUGUGAUUUUGGAGGAACUACAGAACACAUAUCGCAGCUAAAACACAAUUUUGGAGGAACUACAGAAUGUGUGUAUCCACACACAAAGGG
With B3 the Kd [3] was 23.8 ± 0.7 nM.

B4: 101-mer GGC<->CA (ssRNA)
RNA: GGGAGGGAGGAAGGCAAUUUUGGAGGAACUACAGAACACAUAUCGCAGCUAAAACGGCUAUUUGGAGGAACUACAGAAUGCACAUAUCCACACACAAAGGG
B4 was tested, and the Kd [3] was 15.4 ± 0.6 nM.

B5: 101-mer (CA)4<-> (ssRNA)
RNA: GGGAGGGACACACACAGGAAGGCAAUUUUGGAGGAACUACAGAACACAUAUCGCAGCUAAAACACAAUUUUGGAGGAACUACAGAAUGCGGCUAUCAAGGG
For B5, the Kd [3] was 5.6 ± 0.8 nM.

B6: 101-mer CA->UG (ssRNA)
RNA: GGGAGGGAGGAAGGCAAUUUUGGAGGAACUACAGAAUGUGUAUCGCAGCUAAAAUGUGAUUUUGGAGGAACUACAGAAUGCGGCUAUCUGUGUGUGAAGGG
Work on B6 yielded a Kd [3] of 70.5 ± 3.2 nM.

B7: 101-mer allUG (ssRNA)
RNA: GGGAGGGAGGAAUGUGAUUUUGGAGGAACUACAGAAUGUGUAUCGCAGCUAAAAUGUGAUUUUGGAGGAACUACAGAAUGUGUGUAUCUGUGUGUGAAGGG
With B7 the Kd [3] was 61.1 ± 3.6 nM.

B8: 101-mer GGC<->CA_UG (ssRNA)
RNA: GGGAGGGAGGAAGGCAAUUUUGGAGGAACUACAGAAUGUGUAUCGCAGCUAAAACGGCUAUUUGGAGGAACUACAGAAUGUGUGUAUCUGUGUGUGAAGGG
Binder B8 has a Kd [3] of 34.9 ± 0.7 nM.

With UCGGCAC (ssRNA) [GGC (CGG) 7-mer] the Kd [7] was 45000 ± 8000 nM, the binding result [8] was “no binding” and the Kd [1] was 39000 ± 8000 nM.
